Measured values taken from patent US20170283834A1, “Processes for Producing A Fermentation Product Using A Fermenting Organism” (Novozymes A/S, priority 2014, published 2017).

System: zein
Assay: Relative activity assay of protease variants (zein micro titer plate)
Assay type: biochemical
Details: for Relative activity 65° C./60° C.: Table 2
Description: Each well contains 200 microL of 0.05-0.1% of zein (Sigma), 0.25 mM ZnSO4 and 1% of agar in 20 mM sodium acetate buffer, pH 4.5.
Yeast clones on SC-glucose were inoculated to a well of a 96-well micro titre plate containing YPD+Zn medium and cultivated at 28° C. for 3 days. The culture supernatants were applied to a 96-well zein micro titer plate and incubated at at least 2 temperatures (ex. 60° C. and 65° C., 70° C. and 75° C., 70° C. and 80° C.) for more than 4 hours or overnight. The turbidity of zein in the plate was measured as A630 and the relative activity (higher/lower temperatures) was determined as an indicator of thermoactivity improvement. The clones with higher relative activity than the parental variant were selected and the sequence was determined.

| Molecule | Relative activity 75° C./65° C. (Table 3) | also measured |
| --- | --- | --- |
| JTP019: protease variant of SEQ ID NO: 3: A126V (protein, listed as Thermoascus aurantiacus) MRLVASLTALVALSVPVFPAAVNVKRASSYLEITLSQVSNTLIKAVVQNTGSDELSFVHLNFFKDPAPVKKVSVYRDGSEVQFEGILSRYKSTGLSRDAFTYLAPGESVEDVFDIASTYDLTSGGPVTIRTEGVVPYATANSTDIAGYISYSSNVLTIDVDGAAAATVSKAITPLDRRTRISSCSGSRQSALTTALRNAASLANAAADAAQSGSASKFSEYFKTTSSSTRQTVAARLRAVAREASSSSSGATTYYCDDPYGYCSSNVLAYTLPSYNIIANCDIFYTYLPALTSTCHAQDQATTVLHEFTHAPGVYSPGTDDLAYGYQAAMGLSSSQAVMNADTYALYANAIYLGC | – | Relative activity 65° C./60° C.: 69% |
| JTP021: protease variant of SEQ ID NO: 3: M152R (protein, listed as Thermoascus aurantiacus) MRLVASLTALVALSVPVFPAAVNVKRASSYLEITLSQVSNTLIKAVVQNTGSDELSFVHLNFFKDPAPVKKVSVYRDGSEVQFEGILSRYKSTGLSRDAFTYLAPGESVEDVFDIASTYDLTSGGPVTIRTEGVVPYATANSTDIAGYISYSSNVLTIDVDGAAAATVSKAITPLDRRTRISSCSGSRQSALTTALRNAASLANAAADAAQSGSASKFSEYFKTTSSSTRQTVAARLRAVAREASSSSSGATTYYCDDPYGYCSSNVLAYTLPSYNIIANCDIFYTYLPALTSTCHAQDQATTALHEFTHAPGVYSPGTDDLAYGYQAARGLSSSQAVMNADTYALYANAIYLGC | – | Relative activity 65° C./60° C.: 59% |
| JTP051: protease variant of SEQ ID NO: 3: S41R/D79L/S87P/A112P/D142L (protein, listed as Thermoascus aurantiacus) MRLVASLTALVALSVPVFPAAVNVKRASSYLEITLSQVSNTLIKAVVQNTGSDELSFVHLNFFKDPAPVKKVSVYRDGSEVQFEGILSRYKSTGLSRDAFTYLAPGESVEDVFDIASTYDLTSGGPVTIRTEGVVPYATANSTDIAGYISYSSNVLTIDVDGAAAATVSKAITPLDRRTRISSCSGSRQSALTTALRNAASLANAAADAAQSGSASKFREYFKTTSSSTRQTVAARLRAVAREASSSSSGATTYYCLDPYGYCSPNVLAYTLPSYNIIANCDIFYTYLPPLTSTCHAQDQATTALHEFTHAPGVYSPGTLDLAYGYQAAMGLSSSQAVMNADTYALYANAIYLGC | – | Relative activity 75° C./70° C. (Table 3): 102% |
| JTP046: protease variant of SEQ ID NO: 3: D79L/S87P/Q158W (protein, listed as Thermoascus aurantiacus) MRLVASLTALVALSVPVFPAAVNVKRASSYLEITLSQVSNTLIKAVVQNTGSDELSFVHLNFFKDPAPVKKVSVYRDGSEVQFEGILSRYKSTGLSRDAFTYLAPGESVEDVFDIASTYDLTSGGPVTIRTEGVVPYATANSTDIAGYISYSSNVLTIDVDGAAAATVSKAITPLDRRTRISSCSGSRQSALTTALRNAASLANAAADAAQSGSASKFSEYFKTTSSSTRQTVAARLRAVAREASSSSSGATTYYCLDPYGYCSPNVLAYTLPSYNIIANCDIFYTYLPALTSTCHAQDQATTALHEFTHAPGVYSPGTDDLAYGYQAAMGLSSSWAVMNADTYALYANAIYLGC | 96% | – |
| JTP040: protease variant of SEQ ID NO: 3: T54R/D79L/S87P (protein, listed as Thermoascus aurantiacus) MRLVASLTALVALSVPVFPAAVNVKRASSYLEITLSQVSNTLIKAVVQNTGSDELSFVHLNFFKDPAPVKKVSVYRDGSEVQFEGILSRYKSTGLSRDAFTYLAPGESVEDVFDIASTYDLTSGGPVTIRTEGVVPYATANSTDIAGYISYSSNVLTIDVDGAAAATVSKAITPLDRRTRISSCSGSRQSALTTALRNAASLANAAADAAQSGSASKFSEYFKTTSSSTRQRVAARLRAVAREASSSSSGATTYYCLDPYGYCSPNVLAYTLPSYNIIANCDIFYTYLPALTSTCHAQDQATTALHEFTHAPGVYSPGTDDLAYGYQAAMGLSSSQAVMNADTYALYANAIYLGC | 71% | – |
| JTP047: protease variant of SEQ ID NO: 3: D79L/S87P/S157K (protein, listed as Thermoascus aurantiacus) MRLVASLTALVALSVPVFPAAVNVKRASSYLEITLSQVSNTLIKAVVQNTGSDELSFVHLNFFKDPAPVKKVSVYRDGSEVQFEGILSRYKSTGLSRDAFTYLAPGESVEDVFDIASTYDLTSGGPVTIRTEGVVPYATANSTDIAGYISYSSNVLTIDVDGAAAATVSKAITPLDRRTRISSCSGSRQSALTTALRNAASLANAAADAAQSGSASKFSEYFKTTSSSTRQTVAARLRAVAREASSSSSGATTYYCLDPYGYCSPNVLAYTLPSYNIIANCDIFYTYLPALTSTCHAQDQATTALHEFTHAPGVYSPGTDDLAYGYQAAMGLSSKQAVMNADTYALYANAIYLGC | 85% | – |
| JTP004: protease variant of SEQ ID NO: 3: S87P (protein, listed as Thermoascus aurantiacus) MRLVASLTALVALSVPVFPAAVNVKRASSYLEITLSQVSNTLIKAVVQNTGSDELSFVHLNFFKDPAPVKKVSVYRDGSEVQFEGILSRYKSTGLSRDAFTYLAPGESVEDVFDIASTYDLTSGGPVTIRTEGVVPYATANSTDIAGYISYSSNVLTIDVDGAAAATVSKAITPLDRRTRISSCSGSRQSALTTALRNAASLANAAADAAQSGSASKFSEYFKTTSSSTRQTVAARLRAVAREASSSSSGATTYYCDDPYGYCSPNVLAYTLPSYNIIANCDIFYTYLPALTSTCHAQDQATTALHEFTHAPGVYSPGTDDLAYGYQAAMGLSSSQAVMNADTYALYANAIYLGC | – | Relative activity 65° C./60° C.: 45% |
| JTP045: protease variant of SEQ ID NO: 3: S41R/D79L/S87P (protein, listed as Thermoascus aurantiacus) MRLVASLTALVALSVPVFPAAVNVKRASSYLEITLSQVSNTLIKAVVQNTGSDELSFVHLNFFKDPAPVKKVSVYRDGSEVQFEGILSRYKSTGLSRDAFTYLAPGESVEDVFDIASTYDLTSGGPVTIRTEGVVPYATANSTDIAGYISYSSNVLTIDVDGAAAATVSKAITPLDRRTRISSCSGSRQSALTTALRNAASLANAAADAAQSGSASKFREYFKTTSSSTRQTVAARLRAVAREASSSSSGATTYYCLDPYGYCSPNVLAYTLPSYNIIANCDIFYTYLPALTSTCHAQDQATTALHEFTHAPGVYSPGTDDLAYGYQAAMGLSSSQAVMNADTYALYANAIYLGC | 82% | – |
| JTP048: protease variant of SEQ ID NO: 3: D79L/S87P/D104R (protein, listed as Thermoascus aurantiacus) MRLVASLTALVALSVPVFPAAVNVKRASSYLEITLSQVSNTLIKAVVQNTGSDELSFVHLNFFKDPAPVKKVSVYRDGSEVQFEGILSRYKSTGLSRDAFTYLAPGESVEDVFDIASTYDLTSGGPVTIRTEGVVPYATANSTDIAGYISYSSNVLTIDVDGAAAATVSKAITPLDRRTRISSCSGSRQSALTTALRNAASLANAAADAAQSGSASKFSEYFKTTSSSTRQTVAARLRAVAREASSSSSGATTYYCLDPYGYCSPNVLAYTLPSYNIIANCRIFYTYLPALTSTCHAQDQATTALHEFTHAPGVYSPGTDDLAYGYQAAMGLSSSQAVMNADTYALYANAIYLGC | 88% | – |
| JTP036: protease variant of SEQ ID NO: 3: D79L/S87P/D142L (protein, listed as Thermoascus aurantiacus) MRLVASLTALVALSVPVFPAAVNVKRASSYLEITLSQVSNTLIKAVVQNTGSDELSFVHLNFFKDPAPVKKVSVYRDGSEVQFEGILSRYKSTGLSRDAFTYLAPGESVEDVFDIASTYDLTSGGPVTIRTEGVVPYATANSTDIAGYISYSSNVLTIDVDGAAAATVSKAITPLDRRTRISSCSGSRQSALTTALRNAASLANAAADAAQSGSASKFSEYFKTTSSSTRQTVAARLRAVAREASSSSSGATTYYCLDPYGYCSPNVLAYTLPSYNIIANCDIFYTYLPALTSTCHAQDQATTALHEFTHAPGVYSPGTLDLAYGYQAAMGLSSSQAVMNADTYALYANAIYLGC | 73% | Relative activity 70° C./65° C. (Table 3): 73% |
| JTP042: protease variant of SEQ ID NO: 3: Q53K/D79L/S87P/I173V (protein, listed as Thermoascus aurantiacus) MRLVASLTALVALSVPVFPAAVNVKRASSYLEITLSQVSNTLIKAVVQNTGSDELSFVHLNFFKDPAPVKKVSVYRDGSEVQFEGILSRYKSTGLSRDAFTYLAPGESVEDVFDIASTYDLTSGGPVTIRTEGVVPYATANSTDIAGYISYSSNVLTIDVDGAAAATVSKAITPLDRRTRISSCSGSRQSALTTALRNAASLANAAADAAQSGSASKFSEYFKTTSSSTRKTVAARLRAVAREASSSSSGATTYYCLDPYGYCSPNVLAYTLPSYNIIANCDIFYTYLPALTSTCHAQDQATTALHEFTHAPGVYSPGTDDLAYGYQAAMGLSSSQAVMNADTYALYANAVYLGC | 108% | – |
| JTP043: protease variant of SEQ ID NO: 3: Q53R/D79L/S87P (protein, listed as Thermoascus aurantiacus) MRLVASLTALVALSVPVFPAAVNVKRASSYLEITLSQVSNTLIKAVVQNTGSDELSFVHLNFFKDPAPVKKVSVYRDGSEVQFEGILSRYKSTGLSRDAFTYLAPGESVEDVFDIASTYDLTSGGPVTIRTEGVVPYATANSTDIAGYISYSSNVLTIDVDGAAAATVSKAITPLDRRTRISSCSGSRQSALTTALRNAASLANAAADAAQSGSASKFSEYFKTTSSSTRRTVAARLRAVAREASSSSSGATTYYCLDPYGYCSPNVLAYTLPSYNIIANCDIFYTYLPALTSTCHAQDQATTALHEFTHAPGVYSPGTDDLAYGYQAAMGLSSSQAVMNADTYALYANAIYLGC | 80% | – |
